From patent publication US10117916B2, “Peptides and combination of peptides for use in immunotherapy against CLL and other cancers” (immatics biotechnologies GmbH, priority 2015, dated 2018) come the findings set out here.

One assay addresses HLA-A*02:01 (Homo sapiens, UniProt P04439, D140Y/D185E/D98H/E176V/E277Q/G131W/G231S/I119V/I121R/I166T/I218V/L300P/L318F/N151K/N90K/P208A/P217A/Q86G/Q94H/R138H/R169H/T345S). As to the kind of experiment: MHC binding assay: UV-ligand exchange with β2m ELISA (peptide exchange yield). The note with it: MHC class I binding score; binding to HLA-A*02:01 ranged by peptide exchange yield (UV-ligand exchange, β2m ELISA). In a few lines:
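UV-cleavable peptide in HLA monomers exchanged for test peptide by UV irradiation; exchange yield measured by streptavidin-capture ELISA with HRP anti-β2m (TMB, 450 nm) on 100-fold diluted complexes. Quantified against refolded HLA-A*02:01/MLA-001 standards (15-500 ng/ml).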
Background: ELISA stands for enzyme-linked immunosorbent assay.

The subject of another assay is CD8+ T cells. As to the kind of experiment: In vitro immunogenicity: T-cell priming with aAPCs loaded with peptide/MHC and anti-CD28, pMHC multimer readout. The format is cell-based, human. To be noted: CD8+ T cells of healthy donors, three stimulation cycles; for Wells positive [%]: HLA-A*02 restricted peptides; for wells (in vitro immunogenicity, positive wells): HLA class I peptides. The protocol:
In an aspect, the peptides are pre-screened for immunogenicity before being included in the warehouse. By way of example, and not limitation, the immunogenicity of the peptides included in the warehouse is determined by a method comprising in vitro T-cell priming through repeated stimulations of CD8+ T cells from healthy donors with artificial antigen presenting cells loaded with peptide/MHC complexes and anti-CD28 antibody.
CD8+ T cells were primed using artificial APCs coated with anti-CD28 mAb and HLA-A*02 in complex with SeqID No 1 peptide (FIG. 3C, left panel), SeqID No 5 peptide (FIG. 3D left panel), SeqID No 32 peptide (FIG. 3E, left panel) and SeqID No 220 peptide (FIG. 3F, left panel), respectively. After three cycles of stimulation, the detection of peptide-reactive cells was performed by 2D multimer staining with A*02/SeqID No 1 (FIG. 3C), A*02/SeqID No 5 (FIG. 3D), A*02/SeqID No 32 (FIG. 3E) or A*02/SeqID No 220 (FIG. 3F). Right panels (FIGS. 3C, 3D, 3E and 3F) show control staining of cells stimulated with irrelevant A*02/peptide complexes. Viable singlet cells were gated for CD8+ lymphocytes. Boolean gates helped excluding false-positive events detected with multimers specific for different peptides.
In order to obtain information regarding the immunogenicity of the TUMAPs of the present invention, the inventors performed investigations using an in vitro T-cell priming assay based on repeated stimulations of CD8+ T cells with artificial antigen presenting cells (aAPCs) loaded with peptide/MHC complexes and anti-CD28 antibody.
In order to perform in vitro stimulations by artificial antigen presenting cells loaded with peptide-MHC complex (pMHC) and anti-CD28 antibody, the inventors first isolated CD8+ T cells from fresh HLA-A*02 leukapheresis products via positive selection using CD8 microbeads (Miltenyi Biotec, Bergisch-Gladbach, Germany) of healthy donors obtained from the University clinics Mannheim, Germany, after informed consent.
PBMCs and isolated CD8+ lymphocytes were incubated in T-cell medium (TCM) until use consisting of RPMI-Glutamax (Invitrogen, Karlsruhe, Germany) supplemented with 10% heat inactivated human AB serum (PAN-Biotech, Aidenbach, Germany), 100 U/ml Penicillin/100 μg/ml Streptomycin (Cambrex, Cologne, Germany), 1 mM sodium pyruvate (CC Pro, Oberdorla, Germany), 20 μg/ml Gentamycin (Cambrex). 2.5 ng/ml IL-7 (PromoCell, Heidelberg, Germany) and 10 U/ml IL-2 (Novartis Pharma, Nirnberg, Germany) were also added to the TCM at this step.
Generation of pMHC/anti-CD28 coated beads, T-cell stimulations and readout was performed in a highly defined in vitro system using four different pMHC molecules per stimulation condition and 8 different pMHC molecules per readout condition.
The purified co-stimulatory mouse IgG2a anti human CD28 Ab 9.3 (Jung et al., 1987) was chemically biotinylated using Sulfo-N-hydroxysuccinimidobiotin as recommended by the manufacturer (Perbio, Bonn, Germany). Beads used were 5.6 μm diameter streptavidin coated polystyrene particles (Bangs Laboratories, Illinois, USA).
800.000 beads/200 μl were coated in 96-well plates in the presence of 4×12.5 ng different biotin-pMHC, washed and 600 ng biotin anti-CD28 were added subsequently in a volume of 200 μl. Stimulations were initiated in 96-well plates by co-incubating 1×10^6 CD8+ T cells with 2×10^5 washed coated beads in 200 μl TCM supplemented with 5 ng/ml IL-12 (PromoCell) for 3 days at 37° C. Half of the medium was then exchanged by fresh TCM supplemented with 80 U/ml IL-2 and incubating was continued for 4 days at 37° C. This stimulation cycle was performed for a total of three times. For the pMHC multimer readout using 8 different pMHC molecules per condition, a two-dimensional combinatorial coding approach was used as previously described (Andersen et al., 2012) with minor modifications encompassing coupling to 5 different fluorochromes.

Turning to “329 (VLMDGSVKL; listed as Homo sapiens) [compound 329]”, in the assay with HLA-A*02:01, the “Peptide Exchange” value is “″++++″ (≥75% = ++++)”. Further, the “Wells positive [%]” value in the assay with CD8+ T cells was “″+++″ (50%-69% = +++)”.

Take “32 (FIDKFTPPV; listed as Homo sapiens) [compound 32]”: the “Peptide Exchange” value in the assay with HLA-A*02:01 is recorded as “″++++″ (≥75% = ++++)”. Besides, the “Wells positive [%]” value in the assay on CD8+ T cells is “″++++″ (> = 70% = ++++)”. The corresponding values for “201 (YQLELHGIEL; listed as Homo sapiens) [compound 201]” are “″++++″ (≥75% = ++++)” and “″+″ (<20% = +)”.

“380 (YLDRKLLTL; listed as Homo sapiens) [compound 380]”: the “Peptide Exchange” value with HLA-A*02:01 is given as “″+++″ (≥50 = +++)”. The “Wells positive [%]” value in the assay on CD8+ T cells was “″++++″ (> = 70% = ++++)”. The corresponding values for “320 (TIAPVTVAV; listed as Homo sapiens) [compound 320]” are “″++++″ (≥75% = ++++)” and “″+″ (<20% = +)”. Taken in the same sequence, the figures for “332 (VMIQHVENL; listed as Homo sapiens) [compound 332]” were “″+++″ (≥50 = +++)” and “″+″ (<20% = +)”.

As to “521 (YLYGQTTTYL; listed as Homo sapiens) [compound 521]”, the “wells (in vitro immunogenicity, positive wells)” value with CD8+ T cells is reported as “++ (20%-49% = ++)”. With “197 (YLQEVPILTL; listed as Homo sapiens) [compound 197]”, in the assay with HLA-A*02:01, the “Peptide Exchange” value is on record as “″++++″ (≥75% = ++++)”. Further, the “Wells positive [%]” value in the assay on CD8+ T cells was “″+″ (<20% = +)”. As for “192 (YIQEYLTLL; listed as Homo sapiens) [compound 192]”, in the assay with HLA-A*02:01, the “Peptide Exchange” value was “″+++″ (≥50 = +++)”. Also, the “Wells positive [%]” value in the assay with CD8+ T cells is reported as “″+″ (<20% = +)”.

As for “49 (FLTDLFAQL; listed as Homo sapiens) [compound 49]”, the “Peptide Exchange” value in the assay with HLA-A*02:01 is reported as “″++++″ (≥75% = ++++)”. Also, the “Wells positive [%]” value in the assay on CD8+ T cells is given as “″++″ (20%-49% = ++)”. For “26 (AVLLVLPLV; listed as Homo sapiens) [compound 26]”, the “Peptide Exchange” value with HLA-A*02:01 is listed as “″+++″ (≥50 = +++)”. Also, the “Wells positive [%]” value in the assay on CD8+ T cells is listed as “″+″ (<20% = +)”.

On to “202 (YVDDVFLRV; listed as Homo sapiens) [compound 202]”, for which the “Peptide Exchange” value with HLA-A*02:01 is “″++++″ (≥75% = ++++)”. In the assay with CD8+ T cells, the “Wells positive [%]” value is on record as “″++″ (20%-49% = ++)”. Regarding “54 (FLYPFPLALF; listed as Homo sapiens) [compound 54]”, the “Peptide Exchange” value with HLA-A*02:01 is “″+++″ (≥50 = +++)”. Moreover, in the assay with CD8+ T cells, the “Wells positive [%]” value is listed as “″+″ (<20% = +)”. Taken in the same sequence, the figures for “114 (LIPEGPPQV; listed as Homo sapiens) [compound 114]” were “″+++″ (≥50 = +++)” and “″+″ (<20% = +)”.

As for “2 (ALHRPDVYL; listed as Homo sapiens) [compound 2]”, the “Peptide Exchange” value in the assay with HLA-A*02:01 is given as “″+++″ (≥50 = +++)”. Also, in the assay on CD8+ T cells, the “Wells positive [%]” value was “″+″ (<20% = +)”. In the case of “323 (SLDLFNCEV; listed as Homo sapiens) [compound 323]”, the “Peptide Exchange” value in the assay with HLA-A*02:01 is “″++++″ (≥75% = ++++)”. For the same substance, in the assay with CD8+ T cells, the “Wells positive [%]” value was “″+″ (<20% = +)”. For “100 (ILNNEVFAI; listed as Homo sapiens) [compound 100]”, the “Peptide Exchange” value with HLA-A*02:01 is listed as “″+++″ (≥50 = +++)”. In addition, the “Wells positive [%]” value in the assay on CD8+ T cells is “″++″ (20%-49% = ++)”. Taken in the same sequence, the figures for “112 (KTLDVDATYEI; listed as Homo sapiens) [compound 112]” were “″+++″ (≥50 = +++)” and “″+″ (<20% = +)”. As for “154 (SLLAELHVLTV; listed as Homo sapiens) [compound 154]”, in the assay with HLA-A*02:01, the “Peptide Exchange” value is reported as “″++++″ (≥75% = ++++)”. The “Wells positive [%]” value in the assay on CD8+ T cells was “″+″ (<20% = +)”.

With “56 (FVFEAPYTL; listed as Homo sapiens) [compound 56]”, the “Peptide Exchange” value in the assay with HLA-A*02:01 is “″+++″ (≥50 = +++)”. Moreover, the “Wells positive [%]” value in the assay with CD8+ T cells is listed as “″++″ (20%-49% = ++)”.

Consider “307 (LLLTKPTEA; listed as Homo sapiens) [compound 307]”, for which the “Peptide Exchange” value in the assay with HLA-A*02:01 is recorded as “″+++″ (≥50 = +++)”. In the assay with CD8+ T cells, the “Wells positive [%]” value was “″+″ (<20% = +)”. The corresponding values for “240 (ILARDILEI; listed as Homo sapiens) [compound 240]” are “″+++″ (≥50 = +++)” and “″+″ (<20% = +)”. With “96 (ILIDKTSFV; listed as Homo sapiens) [compound 96]”, the “Peptide Exchange” value with HLA-A*02:01 is “″+++″ (≥50 = +++)”. Also, in the assay with CD8+ T cells, the “Wells positive [%]” value is on record as “″+″ (<20% = +)”. The corresponding values for “1 (AIPPSFASIFL; listed as Homo sapiens) [compound 1]” are “″+++″ (≥50 = +++)” and “″+++″ (50%-69% = +++)”. The corresponding values for “69 (GLHQREIFL; listed as Homo sapiens) [compound 69]” are “″+++″ (≥50 = +++)” and “″+″ (<20% = +)”. The corresponding values for “5 (ALIFKIASA; listed as Homo sapiens) [compound 5]” are “″+++″ (≥50 = +++)” and “″+++″ (50%-69% = +++)”. Regarding “220 (ALPEILFAKV; listed as Homo sapiens) [compound 220]”, the “Peptide Exchange” value in the assay with HLA-A*02:01 is recorded as “″+++″ (≥50 = +++)”. Besides, the “Wells positive [%]” value in the assay on CD8+ T cells is reported as “″++″ (20%-49% = ++)”. On to “102 (IQDRAVPSL; listed as Homo sapiens) [compound 102]”, for which the “Peptide Exchange” value with HLA-A*02:01 is “″++″ (≥20% = ++)”. Moreover, the “Wells positive [%]” value with CD8+ T cells is on record as “″+″ (<20% = +)”. The corresponding values for “86 (HLYPGAVTI; listed as Homo sapiens) [compound 86]” are “″+++″ (≥50 = +++)” and “″+″ (<20% = +)”. As for “81 (WLVGQEFEL; listed as Homo sapiens) [compound 81]”, the “Peptide Exchange” value with HLA-A*02:01 was “″+++″ (≥50 = +++)”. In addition, the “Wells positive [%]” value with CD8+ T cells is “″+″ (<20% = +)”.

In the case of “427 (LLYDAVHIV; listed as Homo sapiens) [compound 427]”, the “wells (in vitro immunogenicity, positive wells)” value in the assay on CD8+ T cells is reported as “++ (20%-49% = ++)”. As to “322 (SLASIHVPL; listed as Homo sapiens) [compound 322]”, in the assay with HLA-A*02:01, the “Peptide Exchange” value is given as “″+++″ (≥50 = +++)”. In the assay with CD8+ T cells, the “Wells positive [%]” value was “″+″ (<20% = +)”.

Regarding “281 (NLLDDRGMTAL; listed as Homo sapiens) [compound 281]”, in the assay with HLA-A*02:01, the “Peptide Exchange” value is “″+++″ (≥50 = +++)”. Further, the “Wells positive [%]” value in the assay with CD8+ T cells is recorded as “″+″ (<20% = +)”.

As for “305 (LLFPQIEGIKI; listed as Homo sapiens) [compound 305]”, the “Peptide Exchange” value with HLA-A*02:01 was “″+++″ (≥50 = +++)”. In the case of “85 (HLMLHTAAL; listed as Homo sapiens) [compound 85]”, the “Peptide Exchange” value in the assay with HLA-A*02:01 was “″++++″ (≥75% = ++++)”.

In the case of “6 (ALDTLEDDMTI; listed as Homo sapiens) [compound 6]”, the “Peptide Exchange” value with HLA-A*02:01 was “″+++″ (≥50 = +++)”. As for “94 (ILFPLRFTL; listed as Homo sapiens) [compound 94]”, in the assay with HLA-A*02:01, the “Peptide Exchange” value is reported as “″+++″ (≥50 = +++)”.
